# In patent US20240116985A1 (published 2024):
# Starred links: 1 amine or outer side, 2 acyl side, 3 side chain; linkers in the order of their positions; H or OH if unused. Positions of bridges follow the written chain, without caps; N, C: chain ends. Non-standard residues stand in square brackets, D forms with d. Primed or numbered codes have the meaning given here. B5(11) = 2,2-bis(4-pentenyl)glycine = 2-amino-2-(pent-4-en-1-yl)hept-6-enoic acid (stitching residue, bears both staples), C=CCCCC(CCCC=C)(N[*:1])C(=O)[*:2]; B5(21) = 2-amino-2-(pent-4-en-1-yl)hept-6-enoic acid, bis(4-pentenyl)glycine (stitching residue), C=CCCCC(CCCC=C)(N[*:1])C(=O)[*:2]; (NHMe)AsnR = N4-methyl-L-asparagine, CNC(=O)C[C@H](N[*:1])C(=O)[*:2]; TOMe = O-methyl-L-threonine, CO[C@H](C)[C@H](N[*:1])C(=O)[*:2]; Bta = N[C@@H](Cc1csc2ccccc12)C(=O)O; αAllylPro = C=CC[C@@]1(C(=O)O)CCCN1; NMeH = CN[C@@H](Cc1c[nH]cn1)C(=O)O; S8 = C=CCCCCCC[C@](C)(N)C(=O)O
# T1: full-length beta-Catenin (Uniprot ID P35222) (Homo sapiens (Human), UniProt P35222 2-781)
# T1 construct: Tags of the recombinant protein are not described for the FP assay; also called bCat; B-Catenin
# T1 sequence: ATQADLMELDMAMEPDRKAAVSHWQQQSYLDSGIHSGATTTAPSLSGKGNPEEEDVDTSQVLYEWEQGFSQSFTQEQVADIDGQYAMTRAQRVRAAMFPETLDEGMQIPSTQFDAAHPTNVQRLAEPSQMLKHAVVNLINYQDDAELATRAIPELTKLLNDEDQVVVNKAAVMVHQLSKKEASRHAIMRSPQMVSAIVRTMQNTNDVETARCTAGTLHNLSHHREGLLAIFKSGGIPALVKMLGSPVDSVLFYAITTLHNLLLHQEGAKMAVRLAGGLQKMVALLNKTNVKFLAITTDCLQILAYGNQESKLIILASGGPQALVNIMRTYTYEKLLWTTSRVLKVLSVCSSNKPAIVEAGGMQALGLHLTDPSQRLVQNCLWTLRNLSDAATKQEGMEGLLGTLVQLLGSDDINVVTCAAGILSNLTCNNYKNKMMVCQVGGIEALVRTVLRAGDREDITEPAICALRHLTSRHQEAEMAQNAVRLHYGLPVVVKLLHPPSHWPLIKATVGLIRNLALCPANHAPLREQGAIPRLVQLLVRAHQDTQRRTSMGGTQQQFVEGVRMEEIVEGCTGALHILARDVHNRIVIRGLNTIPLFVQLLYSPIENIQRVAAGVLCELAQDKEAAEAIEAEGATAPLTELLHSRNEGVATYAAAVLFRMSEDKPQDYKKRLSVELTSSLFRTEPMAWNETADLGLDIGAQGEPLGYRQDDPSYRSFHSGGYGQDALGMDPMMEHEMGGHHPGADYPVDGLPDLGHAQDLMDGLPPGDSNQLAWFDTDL
# T2: full-length beta-Catenin (Uniprot ID P35222) (Homo sapiens (Human), UniProt P35222 1-781)
# T2 construct: also called bCat; B-Catenin
# T2 sequence: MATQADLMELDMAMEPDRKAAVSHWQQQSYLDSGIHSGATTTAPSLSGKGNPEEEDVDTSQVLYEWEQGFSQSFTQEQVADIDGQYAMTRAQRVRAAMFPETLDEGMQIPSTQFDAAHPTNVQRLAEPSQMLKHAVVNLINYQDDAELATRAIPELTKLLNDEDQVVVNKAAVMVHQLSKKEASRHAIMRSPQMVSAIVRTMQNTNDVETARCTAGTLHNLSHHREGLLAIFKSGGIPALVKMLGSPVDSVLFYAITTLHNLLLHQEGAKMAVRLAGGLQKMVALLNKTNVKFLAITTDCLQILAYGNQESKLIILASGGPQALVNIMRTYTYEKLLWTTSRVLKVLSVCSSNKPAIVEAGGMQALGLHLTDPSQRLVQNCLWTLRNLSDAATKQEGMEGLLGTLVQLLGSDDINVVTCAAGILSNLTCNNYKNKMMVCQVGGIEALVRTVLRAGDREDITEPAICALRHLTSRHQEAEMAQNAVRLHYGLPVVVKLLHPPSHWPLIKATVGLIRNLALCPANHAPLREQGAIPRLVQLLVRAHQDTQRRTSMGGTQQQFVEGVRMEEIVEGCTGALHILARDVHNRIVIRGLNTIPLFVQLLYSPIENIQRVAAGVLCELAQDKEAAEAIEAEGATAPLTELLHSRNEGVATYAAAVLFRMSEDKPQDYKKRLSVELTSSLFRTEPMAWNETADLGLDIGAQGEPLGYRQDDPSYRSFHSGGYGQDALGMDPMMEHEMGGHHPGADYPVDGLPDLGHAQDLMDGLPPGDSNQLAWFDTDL
# T3: full-length beta-Catenin (Uniprot ID P35222) (Homo sapiens (Human), UniProt P35222 1-781)
# T3 construct: also called bCat; B-Catenin
# T3 sequence: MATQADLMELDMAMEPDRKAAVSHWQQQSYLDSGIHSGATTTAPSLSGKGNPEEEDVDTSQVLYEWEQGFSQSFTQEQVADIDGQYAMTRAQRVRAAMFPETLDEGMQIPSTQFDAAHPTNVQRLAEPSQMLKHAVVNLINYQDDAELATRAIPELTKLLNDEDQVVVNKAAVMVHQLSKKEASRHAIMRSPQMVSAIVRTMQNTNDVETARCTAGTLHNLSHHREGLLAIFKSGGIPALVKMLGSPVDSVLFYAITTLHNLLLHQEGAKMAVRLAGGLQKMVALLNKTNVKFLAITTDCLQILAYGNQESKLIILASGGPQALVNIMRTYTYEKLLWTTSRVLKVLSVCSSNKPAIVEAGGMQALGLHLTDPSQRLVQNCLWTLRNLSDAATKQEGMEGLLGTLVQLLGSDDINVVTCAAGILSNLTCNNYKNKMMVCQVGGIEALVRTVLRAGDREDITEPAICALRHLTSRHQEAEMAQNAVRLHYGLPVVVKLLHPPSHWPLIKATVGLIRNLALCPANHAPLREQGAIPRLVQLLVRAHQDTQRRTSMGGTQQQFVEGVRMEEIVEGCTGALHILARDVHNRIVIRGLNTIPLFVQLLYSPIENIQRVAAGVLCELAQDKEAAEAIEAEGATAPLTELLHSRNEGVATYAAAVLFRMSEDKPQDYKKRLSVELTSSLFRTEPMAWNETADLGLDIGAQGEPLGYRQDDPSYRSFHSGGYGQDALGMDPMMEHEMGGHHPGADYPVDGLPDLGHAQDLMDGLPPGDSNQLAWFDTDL
# Biological target: T1, full-length beta-Catenin (Uniprot ID …)
# Assay: fluorescence polarization competition; full-length beta-catenin, competitor 5FAM-TCF4 10-53
# Method: (§1) The plate was incubated protected from light for 60 minutes at 20° C. prior to read. Reads were performed on a CLARIOstar plate reader (BMG Labtech) in duplicate, and data were fitted to a 1:1 binding model with hill slope using an in-house script. All provided concentrations are final concentrations.
row,Binder,IC50
1,"XDIXDEAAFQXFXP (not fully specified; As printed: Ac-PL3-Asp-Ile-B5-Asp-Glu-Ala-Ala-Phe-Gln-S8-Phe-BztA-Pro-NH2; N-terminal Ac, C-terminal NH2; PL3 (1), B5 (4), S8 (11), BztA (13); staples PL3-B5 and B5-S8 by olefin metathesis, Stapled peptide composition; also called Ac-PL3-Asp-Ile-B5-Asp-Glu-Ala-Ala-Phe-Gln-S8-Phe-BztA-Pro-NH2) [I-638]",3880 nM

# Biological target: T2, full-length beta-Catenin (Uniprot ID …)
# Assay: fluorescence polarization competition; full-length beta-catenin, competitor 5FAM-TCF4(10-53) probe
# Method: as §1
row,Binder,IC50
1,"XDLXDEAAFNXFXH (not fully specified; N-terminal Ac; C-terminal NH2; PL3 at 1, B5 at 4, S8 at 11, BztA at 13, dHis (D-His) at 14; stapled PL3-B5 and B5-S8 by olefin metathesis, Stapled peptide; also called Ac-PL3-Asp-Leu-B5-Asp-Glu-Ala-Ala-Phe-Asn-S8-Phe-BztA-dHis-NH2) [I-744]",112 nM
2,"XDLXDEAAFNXFXT (not fully specified; N-terminal Ac; C-terminal NH2; PL3 at 1, B5 at 4, S8 at 11, BztA at 13; stapled PL3-B5 and B5-S8 by olefin metathesis, Stapled peptide; same description as I-749, earlier eluting staple isomer composition; also called Ac-PL3-Asp-Leu-B5-Asp-Glu-Ala-Ala-Phe-Asn-S8-Phe-BztA-Thr-NH2) [I-748]",54 nM
3,"Ac-[αAllylPro]DL[B5(11)]DEAAFN[S8]F[Bta][NMeH]-NH2 (staple 1-4, 4-11; not fully specified, Stapled peptide; same description as I-746, later eluting staple isomer composition; also called Ac-PL3-Asp-Leu-B5-Asp-Glu-Ala-Ala-Phe-Asn-S8-Phe-BztA-NMeHis-NH2) [I-747]",2390 nM
4,"XDLXDEAAFNXFXH (not fully specified; N-terminal Ac; C-terminal NH2; PL3 at 1, B5 at 4, S8 at 11, BztA at 13, dHis (D-His) at 14; stapled PL3-B5 and B5-S8 by olefin metathesis, Stapled peptide; same description as I-744, later eluting staple isomer composition; also called Ac-PL3-Asp-Leu-B5-Asp-Glu-Ala-Ala-Phe-Asn-S8-Phe-BztA-dHis-NH2) [I-745]",80 nM
5,"XDLXDEAAFNXFXQI (not fully specified; N-terminal Ac; C-terminal NH2; PL3 at 1, B5 at 4, S8 at 11, BztA at 13; stapled PL3-B5 and B5-S8 by olefin metathesis, Stapled peptide; also called Ac-PL3-Asp-Leu-B5-Asp-Glu-Ala-Ala-Phe-Asn-S8-Phe-BztA-Gln-Ile-NH2) [I-732]",4220 nM
6,"XDLXDEAAFNXFXHI (not fully specified; N-terminal Ac; C-terminal NH2; PL3 at 1, B5 at 4, S8 at 11, BztA at 13, dIle (D-Ile) at 15; stapled PL3-B5 and B5-S8 by olefin metathesis, also called Ac-PL3-Asp-Leu-B5-Asp-Glu-Ala-Ala-Phe-Asn-S8-Phe-BztA-His-dIle-NH2) [I-742]",159 nM
7,"XDLXDEAAFNXFXHA (not fully specified; N-terminal Ac; C-terminal NH2; PL3 at 1, B5 at 4, S8 at 11, BztA at 13; stapled PL3-B5 and B5-S8 by olefin metathesis, also called Ac-PL3-Asp-Leu-B5-Asp-Glu-Ala-Ala-Phe-Asn-S8-Phe-BztA-His-Ala-NH2) [I-738]",63 nM
8,"XDLXDEAAFNXFXQA (not fully specified; N-terminal Ac; C-terminal NH2; PL3 at 1, B5 at 4, S8 at 11, BztA at 13; stapled PL3-B5 and B5-S8 by olefin metathesis, Stapled peptide; same description as I-730, earlier eluting staple isomer composition; also called Ac-PL3-Asp-Leu-B5-Asp-Glu-Ala-Ala-Phe-Asn-S8-Phe-BztA-Gln-Ala-NH2) [I-729]",56 nM
9,"XDLXDEAAFNXFXHI (not fully specified; N-terminal Ac; C-terminal NH2; PL3 at 1, B5 at 4, S8 at 11, BztA at 13; stapled PL3-B5 and B5-S8 by olefin metathesis, Stapled peptide; same description as I-740, later eluting staple isomer composition; also called Ac-PL3-Asp-Leu-B5-Asp-Glu-Ala-Ala-Phe-Asn-S8-Phe-BztA-His-Ile-NH2) [I-741]",226 nM
10,"XDLXDEAAFNXFXHI (not fully specified; N-terminal Ac; C-terminal NH2; PL3 at 1, B5 at 4, S8 at 11, BztA at 13; stapled PL3-B5 and B5-S8 by olefin metathesis, Stapled peptide; same description as I-741, earlier eluting staple isomer composition; also called Ac-PL3-Asp-Leu-B5-Asp-Glu-Ala-Ala-Phe-Asn-S8-Phe-BztA-His-Ile-NH2) [I-740]",376 nM
11,"XDLXDEAAFNXFXHA (not fully specified; N-terminal Ac; C-terminal NH2; PL3 at 1, B5 at 4, S8 at 11, BztA at 13, dAla (D-Ala) at 15; stapled PL3-B5 and B5-S8 by olefin metathesis, also called Ac-PL3-Asp-Leu-B5-Asp-Glu-Ala-Ala-Phe-Asn-S8-Phe-BztA-His-dAla-NH2) [I-739]",53 nM
12,"XDLXDEAAFNXFXQI (not fully specified; N-terminal Ac; C-terminal NH2; PL3 at 1, B5 at 4, S8 at 11, BztA at 13, dIle (D-Ile) at 15; stapled PL3-B5 and B5-S8 by olefin metathesis, Stapled peptide; also called Ac-PL3-Asp-Leu-B5-Asp-Glu-Ala-Ala-Phe-Asn-S8-Phe-BztA-Gln-dIle-NH2) [I-734]",370 nM
13,"XDLXDEAAFNXFXQI (not fully specified; N-terminal Ac; C-terminal NH2; PL3 at 1, B5 at 4, S8 at 11, BztA at 13, dIle (D-Ile) at 15; stapled PL3-B5 and B5-S8 by olefin metathesis, Stapled peptide; also called Ac-PL3-Asp-Leu-B5-Asp-Glu-Ala-Ala-Phe-Asn-S8-Phe-BztA-Gln-dIle-NH2) [I-735]",246 nM
14,"XDLXDEAAFNXFXQI (not fully specified; N-terminal Ac; C-terminal NH2; PL3 at 1, B5 at 4, S8 at 11, BztA at 13; stapled PL3-B5 and B5-S8 by olefin metathesis, Stapled peptide; also called Ac-PL3-Asp-Leu-B5-Asp-Glu-Ala-Ala-Phe-Asn-S8-Phe-BztA-Gln-Ile-NH2) [I-733]",4260 nM
15,"Ac-[αAllylPro]DL[B5(11)]DEAAFN[S8]F[Bta][NMeH]-NH2 (staple 1-4, 4-11; not fully specified, Stapled peptide; same description as I-747, earlier eluting staple isomer composition; also called Ac-PL3-Asp-Leu-B5-Asp-Glu-Ala-Ala-Phe-Asn-S8-Phe-BztA-NMeHis-NH2) [I-746]",5000 nM

# Biological target: T3, full-length beta-Catenin (Uniprot ID …)
# Assay: fluorescence polarization competition; full-length beta-catenin with 5FAM-labeled TCF4 residues 10-53 probe as competitor
# Method: as §1
row,Binder,IC50
1,"Ac-[αAllylPro]D[TOMe][B5(21)]DEAAFQ[S8]F[Bta]Q-NH2 (staple 1-4, 4-11, It has the same description as I-542) [I-541]",180 nM
2,XDTXDEAAFQXFXQ (not fully specified; N-terminal Ac; PL3 at 1; TOMe at 3; B5 at 4; S8 at 11; BztA at 13; C-terminal NH2; staples PL3(1)-B5(4) and B5(4)-S8(11) by olefin metathesis) [I-542],109 nM
3,"Ac-[αAllylPro]DA[B5(21)][(NHMe)AsnR]DAAFV[S8]F[Bta]Q-NH2 (staple 1-4, 4-11) [I-540]",5000 nM
